A short description of this data set: soluble on expression in E. coli; label from the status in PepcDB or PDB records.
Turning to “MLDHVSITVSDIAVAEPFYDAIMAALGVVKVGARGDWLGYGERARPEHPDRVYLSIRKGDRPEPAYGRHWCFKATSRAVVDAFWQAGLAHGGVDQGAPGLRDYHPGYYAAFIADPDGNRLEAVCHTLG”, the “soluble on expression in E. coli” value is reported as “not soluble”.

For the sequence “MGSDKIHHHHHHVIKLIRQFVLPHFGIDATEAKISALGNGHINETLLVRWPTGELVLQRINTQVFKTPQALVSNADKISHHLCAKALQQQYGLKVVSPCLTKEGELALDLGEQGFWRAISYLPHSHSIEVVKSEKEAEMAAKAFGHFASALSDFDATQLEDVIPQFHHLPGRMALLKQAVELDSQHRLAFCRHWVDYAVSQQALLDELAEISPKLPLRICHNDTKINNMLFDKRDMSSMAIIDLDTCMKGHLMYDFGDMVRTFCSPEAEDSTALENVKVRQSIFAAICRGYLSELGNVLTEVEKRSLWLGARVICLMIGVRFLTDYLNGDVYFHIHREGHNLDRAANQFTLYQSLLDQDVALKACFELNPLSAVEHS”, the “soluble on expression in E. coli” value is given as “not soluble”.

For “MKTNKKDEETGGNVYAHLDKTSVLQEARAFNETPINARKCCFILSKLIYIIQQGESIGRTEATEAFFGVTKLWQSKDVSLRRMVYLAVKELAEVSDDVIIVTSSLTKDMTGREDLYRAAAIRALCKITDTGMLQTIERYMKQAIVDRNSAISSSAIVSSIHLMRKSSEVVRRWANEVQEAVSSDNHMVQYHALALLYQIRANDRLAVNKLVQKFSKNALRSPYAVCYLIRIATRCLVDDDQPDSSVFTFIESCLRHKSEMVVYEAARAIVSLPQTTPSEIQPAITALQMCCTSPKAAVRFAAVRTLNKVAMAHPNAVMSCNVDLEKFITDPNRSIATLAITTLLKTGAESSVERLMQQIAGFVNEISDEFKIVVVDAIRSLCSRYPRKHTVMMPFLAKMLRSDGSYDYKKAIVETIIAIIEENPDAKVAGLAHLCEFIEDCEHDNLSTRVLHLLGREAPKTPNPSSYIRFIYNRVILESTKVRAAAVTALAKFGAQCVDLRPSIQVLLKRCLLDSDDEVRDRATFYLKMLTEAAEGLIHNFILDGLQVSPSGLERSILDYLRSGSYSSPFDLRVVPVTQQALSQPEKRVPQLVEEEEKPKAPKVEPYAAQLAAIPQFAALGPVFKSSTRIALTESIAEYTVHMIKHTFANAMVLQFECKNTMNDQLLLDVSVELEDPDGEWETGNTVQIDKLPYGEVHSAFSLLEFPDSGAISGSLGAILKFKVMDVDPTSGEPDSDDTYEQTYVLEEVDVNVSDSVQGVAKSSFGSAWEALGDDATREETFQLSTVENIPDAVKKISEILGLVPCERSDRVPEGKTQHTVFLSGVFRGGYDVLSKATVAVDPNDNSIAMNIIIKSNEPLVADLVISAVV”, the “soluble on expression in E. coli” value is on record as “not soluble”.

Turning to “VLLHSKEVAYIAGLMAEELGLDAKLARRAGLLHDIGKAISHELGGSHTDIGVELARKYGEPDAVINAIRAHHEEEPVRYPEVALVCAADALSAA”, the “soluble on expression in E. coli” value is “not soluble”.

In the case of “MGSDKIHHHHHHMTSKNQSPLASDHPLAMPDTEISAREVFGIDIDMLVPAFSVGSEHVPDVDPAYRFDPDTTKAILAGFAFNRRVMVQGYHGTGKSTHIEQVAARLNWPCIRVNLDSHVSRIDLIGKDAIVVKDGKQITEFREGMLPWALQHPCALVFDEYDAGRPDVMFVIQRVLEVEGRLTLLDQNRVIRPHAAFRLFATANTVGLGDTTGLYHGTQQINQGQMDRWNIVATLNYLAHDDECSIVVAKLKDYDTPEGRDLVSKMVMLADLTRQGFMNGDISTVMSPRTVITWAENTRIFGDHSYGFRVTFLNKCDEVERPILAEYYQRCFGTDLPDGPARMLA”, the “soluble on expression in E. coli” value is reported as “not soluble”.

In the case of “MHYHGSCHCGTIRFDVEGELTGAMSCNCSICRRKGALLWFVPRDHLRLATPDEQIATYTFNRHLIKHRFCPTCGIHTHGEGVDQQGRAMAAINIRCLDDVDLDAVAVHQYDGRAALEHHHHHH”, the “soluble on expression in E. coli” value is recorded as “soluble”.

Turning to “MGSDKIHHHHHHAAVTKTTWSDAPAREFVFVENNSDDNFFVTPGGALDPRMTGANRWTGLKYTGSGTIYQQSLGYIDNGYNTGLNANWKFDMWLENSPVSHPLTGLRCINWYAGCDMATSLILPQTTDASGFYGATVTSGGAKWMHGMMSDAFYQYLQQMPVGGSFTMTINACQTSVNYDASSGARCKDQASGNWYVRNVTHTKAANLRLINTHSLAEVFINSDGVPTLGEGNADCRTQTIGSRSGLSCKMVNYTLQTNGLSNTSIHIFPAIANSSLASAVGAYDMQFSLNGSSWKPVSNTAYYYTFNEMKSSDSIYVFFSSNFFKQMVNLGISDINTKDLFNFRFQNTTSPESGWYEFSTSNTLIIKPRDFSISIISDEYTSAPSREGYVGSGEPALDFGYIVTTSGKTAADEVLIKVTGPAQVIGGRSYCLFSSDDGTAKVPFPATLSFITRSGTTQTYDAGCDDSWRDMTDALWLTTPWTDISGEVGQMDKTTVKFSIPMDNAISLRTVDDNGWFGEVSASGEIHVQATWRNIN”, the “soluble on expression in E. coli” value is listed as “not soluble”.

“MGSDKIHHHHHHMRVLHFYKTYLSETVGGIEQVIFQLCESSGSWGIDNHVLTLSSDPHPPVVPFGGHVVHRARLDLQLASTGFSLSVFKQFRELAAEADVVNYHFPWPFMDLVHFLTGMNKPSVVTYHSDIIRQRVLLKLYRPLMSRFLHSVDRIVAASPNYFSTSDVLRQYREKTRVITYGLDKDGYPKPATQRLEHWREKLGPRFFLFVGVMRYYKGLHILLDALQGTDYPVVIVGAGPLQAELYAQAAALGLRNVHFLGRVDDEDKVALLQLSYAMVFPSHLRSEAFGISLLEGAMYGKPMISSEIGTGTSYINIHGETGLVVPPSQPAAFRQAMRWLWEHPQQAEEMGRNAEARYRQLFTAEEMGRRWSELYRELLEEKASSRYVKAAR”: the “soluble on expression in E. coli” value is “not soluble”.

Consider “HQCQGCGSTQLISVGVGTEQLETQLTNLFPEYKTVRIDRDSTRRKGSLEDYLEAIKNNEYQILIGTQMLAKGHHFPNVTLVGLIDVDSSLFSSDFRAPERLAQLFIQVAGRAGRASKPGEVILQTHHPE”, for which the “soluble on expression in E. coli” value is on record as “not soluble”.

In the case of “KKNNVYPELEAFIGKEIIFSDKNFNTVGNKAFKDQFLLISYVDSGNCTPCSLEKMQYMKTNKRRLLDTHTGVLMIVHEKDTFTVNEVFRQMHVSYPIFFDSLGCFKKENGIFDNPLYQDFVIDRSNKVVWLGNPLRNKQSWQQYEKAISMLMD”, the “soluble on expression in E. coli” value is recorded as “not soluble”.

For the sequence “MDQTQNTIAGIGEINGSIKTEINAIATVDDSNEKLNQIINSNQKILELLHQLKLTVSSFTPASQLHLLQRLNSLVMELDNMAKLSDKCNIQVPIEVLNLIDDGKNPDEFTKDVLNKNCIAKNQVTKGKSDAFKGLRKHLLEELEQAFPDEVDRYRDIRASYAAEAKRLAQTQSVLPNGDAKVKSEL”, the “soluble on expression in E. coli” value is “soluble”.

Turning to “MGSDKIHHHHHHMAEQPLIGKTILTTRAAGQSSPFAAQLRAAGAAVIEMPTLEIGPPSSWLPLDEAIAAIADFDWLILASANAVEAVQQRLAAQQKSWSDVPCAIAVVGQKTAQVLAAQGGKADYIPPEFIAESLVEHFPQPVAGQRLLFPRVETGGREQITQALQSQGAIVVEVPAYESRCPSQIPDDALIALRQAHLNLISFTSSKTVRNFCQLMASNLGVDWSARISGVAIASIGPQTSITCQELLGRVEVEAQEYTLDGLLLAIEQWARQTT”, the “soluble on expression in E. coli” value is listed as “not soluble”.

“MAETKRMTVSQALVEFLGHQWTVDGDIRERTIPGMFGIFGHGNVAGIGQALKQYNVEQPELMPYYQARNEQAMVHQSVGYARMHRRRGTYASAASVGPGATNLLTGAALATTNRLPALLLPSDTFATRVADPVLQQLEQPWDIGLTVNDAFRPVSKFFDRVQRPEQLFSIALAAMRVLTDPAETGAVTIALPEDVQAEMLDVPVEFLQDREWHIRRPR”: the “soluble on expression in E. coli” value is “not soluble”.

On to “MGSDKIHHHHHHMIGYGKTVRDIRTSKGIHQKDLYDNIISKSFAIEFEKGKHDITLSLFEKILKRMNMDLDEFFYIHRELSKSAEKNYLCMNQERGNIYDLESLELLYSELSKHDGELVEVWKAFVRSRIKMVEHLLKYHEFTVDVITAKDKCTIQKYLFSIDTWTLEELKICANSIYFFEEDLQIQFLNQVIKAIQPYKNYDRARRVLCTLLINTIEVFISRSQLSSASKLLILLDSLCIYNESAFYRNISNFLKGLLKMQSNQIKEGYAQAKKAIQLMNDLHFEEIAYLYEILLDQFIQLEGIDILNY”, for which the “soluble on expression in E. coli” value was “not soluble”.

Consider “MGSDKIHHHHHHMIKQVNPHFKEFLFDWNQKFQFLVGGYGSSKSYHVALKIVLKLLREKRTALVIREVYDTHRDSTFSLFDELVSDLKLDHIVRCVSSPMQIRFSNGSRIIFKGMDKPAKLKSINNISLIWIEECSEVKYEGFKELLGRLRHPTLPLHMILSTNPVGEDNWTFKHFFKDDREKRFVLDDKELYEKRIIVSNDTYYHHSTADDNLFLPESYVQQLEELKEYDPDLYRIARKGHFGVNGIRVLPQFEERPHEEVMTAISNINRPLKRVGMDFGFVESYNAVVRVAVDHEKKYLYIYWEYYKNGLTDDKTAEELKEFAETKELIKADSAEPKTIRYFQQHGFNMVGARKYQGSRLQYTKKIKRFRKIICSDRCENTIYELKPLAYATDKLGNIIEDEFTIDPHTLSAIWYALDDYEVTDLKEESKGRPQRSRPGRR”, for which the “soluble on expression in E. coli” value is given as “not soluble”.

Take “MSVNGAFSPCVVIPCYNHGAMMASVLVRLAPLALPVFIVDDGSDAATQHVLNLLAAENDGVTLIRLANNSGKGAAVMRGIEAVAQAGFSHALQVDADGQHQIEDAPLLLDEAKTHPDCLISGRPRYDDSVPKSRLYGRYVTHVWVWIETLSLSIKDSMCGFRVYPVAATVSLLSRKSLGRRMDFDTEIMVRLYWAGTPSRFIETAVTYPENGLSHFDALHDNLRISWMHTRLFFGMLPRIPVLLMRQRQQHWAGVSERKGLLGMRFMLAVYQRLGRGVFTLFLWPVIAFYWLTGRTARKASQSWLRQIGEYAHQQDILLPKPLNSYHHFLRFGQAMLDKIASWRGDLHWGRDIDFAPGAQEAIEHGRQKGQLILASHLGDIEVCRALAPQVSGLVINALVFTENSQRFKQVLEEIAPQAGVNLIPVSNIGPDTAIMLQQKLDAGEWVAIVGDRTAVHRQRGGVRRVVWSPFLGKEAPFPQGPFVLAAALRCPVLLMFVIREQKKLRVYCEPFADSITLPRPTRQQALQQVVDRYAERLAHYALKSPLDWFNFFDFWSLPDDDGRTAGKKESLEHHHHHH”: the “soluble on expression in E. coli” value is “not soluble”.

For “EDLIFGKRISLDLGYREKALFYSLEEHVALIHPEDHDNFIHCWQLFISSANLKDNFSCTYRLKTSDGQWFWYKDLGKIVAVDANNHPVRVTGSYTNITESRANEERAQYYGDAFQQTQ”, the “soluble on expression in E. coli” value was “not soluble”.

For “MIYKSIAERLRIRLNSADFTLNSLLPGEKKLAEEFAVSRMTIRKAIDLLVAWGLVVRRHGSGTYLVRKDVLHQTASLTGLVEVLKRQGKTVTSQVLIFEIMPAPPAIASQLRIQINEQIYFSRRVRFVEGKPLMLEDSYMPVKLFRNLSLQHLEGSKFEYIEQECGILIGGNYESLMPVLADRLLARQMKVAEHTPLLRITSLSYSESGEFLNYSVMFRNASEY”, the “soluble on expression in E. coli” value is reported as “not soluble”.

For “MGSDKIHHHHHHMAATLKLSQLISALSYALDITEGQPEGHCVRSCWIGMHIGRALGLAPQELWDLYYAILLKDLGCSSNAARICELYRTDDRSFKQDFKQVGASLPQMLGFVFSHTGTHAAGWRERAASVVQVLRRGKEMADELINTRCHRGADIARQLRFNENVANGIQYLDEHWDGSGRPLGLQRDAIPLNARIALLAQVIDVFHVTHGRHAALDEAVRRGGGWFDPELVAAFRGASRDTAFWQRLESDDIERAVLALEPAQCTVPLDEDYMDEIAEGFGQVVDSKSPFTAGHSQRVGHYADRIGEELGLSPQRRRWLKRGALLHDVGKLGVSNTILDKPGKLTPEEWEAVKLHASHTETILGRIESFAELAKVAGAHHERLDGKGYPRGLMASEIALETRVITTADIFDAIHAARPYHPENPVPETLDIMRKNLGSALDPACFEALEAVLREEDALESDAICLT”, the “soluble on expression in E. coli” value is listed as “not soluble”.

The record behind these values is the DeepSol protein solubility set.
